Experimental data: US20150344570A1 (published 2015)

Target: T1, FcγRIIa R (FcγRIIa, allotype with Arg at position 131), extracellular domain with C-terminal His tag (human, UniProt P12318 34-217)
T1 construct: extracellular domain; also called FcγRIIa R type; 2aR
T1 sequence (looked up): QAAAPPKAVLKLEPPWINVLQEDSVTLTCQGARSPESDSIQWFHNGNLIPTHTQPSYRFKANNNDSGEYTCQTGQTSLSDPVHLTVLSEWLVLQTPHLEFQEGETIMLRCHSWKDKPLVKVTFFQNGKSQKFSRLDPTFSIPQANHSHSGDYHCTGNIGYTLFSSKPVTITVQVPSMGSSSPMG
Assay: SPR (Biacore), antibody captured on antigen peptide chip, FcγR as analyte; relative binding
Protocol: Analysis of interaction between objective antibody and the FcγR was carried out using Biacore T100 (GE Healthcare). HBS-EP+ (GE Healthcare) was used as the running buffer, and the measurement temperature was set to 25° C. Chips produced by immobilizing the antigen peptide by the amine coupling method to a Series S Sencor Chip CM5 (GE Healthcare), or alternatively, chips produced by allowing preliminarily biotinylated antigen peptides to interact with and immobilize onto a Series S Sensor Chip SA (certified) (GE Healthcare) were used. Antibodies of interest were captured onto an antigen peptide-immobilized chip, and allowed to interact to each FcγR diluted with running buffer. To regenerate and repeatedly use the chip, the antibodies captured on the chip were washed off by reacting 10 mM glycine-HCl, pH 1.5.

Row | Binder | Ho/Con_2aR
1 | GpH7-B3 variant P331_13S/GpL16-k0 (antibody, human IgG1, kappa, also called Ho Ab) heavy: not shown light: DIVMTQSPLSLPVTPGEPASISCQASESLVHSNRNTYLHWYLQKPGQSPQLLIYKVSNRFSGVPDRFSGSGSGTDFTLKISRVEAEDVGVYYCSQNTHVPPTFGQGTKVEIERTVAAPSVFIFPPSDEQLKSGTASVVCLLNNFYPREAKVQWKVDNALQSGNSQESVTEQDSKDSTYSLSSTLTLSKADYEKHKVYACEVTHQGLSSPVTKSFNRGEC | 87.8 % of GpH7-B3/GpL16-k0 (=100)
2 | GpH7-B3 variant S239_10E/GpL16-k0 (antibody, human IgG1, kappa, also called Ho Ab) heavy: not shown light: DIVMTQSPLSLPVTPGEPASISCQASESLVHSNRNTYLHWYLQKPGQSPQLLIYKVSNRFSGVPDRFSGSGSGTDFTLKISRVEAEDVGVYYCSQNTHVPPTFGQGTKVEIERTVAAPSVFIFPPSDEQLKSGTASVVCLLNNFYPREAKVQWKVDNALQSGNSQESVTEQDSKDSTYSLSSTLTLSKADYEKHKVYACEVTHQGLSSPVTKSFNRGEC | 122 % of GpH7-B3/GpL16-k0 (=100)
3 | GpH7-B3 variant P331_15Y/GpL16-k0 (antibody, human IgG1, kappa, also called Ho Ab) heavy: not shown light: DIVMTQSPLSLPVTPGEPASISCQASESLVHSNRNTYLHWYLQKPGQSPQLLIYKVSNRFSGVPDRFSGSGSGTDFTLKISRVEAEDVGVYYCSQNTHVPPTFGQGTKVEIERTVAAPSVFIFPPSDEQLKSGTASVVCLLNNFYPREAKVQWKVDNALQSGNSQESVTEQDSKDSTYSLSSTLTLSKADYEKHKVYACEVTHQGLSSPVTKSFNRGEC | 105 % of GpH7-B3/GpL16-k0 (=100)
4 | GpH7-B3 variant S239_08L/GpL16-k0 (antibody, human IgG1, kappa, also called Ho Ab) heavy: not shown light: DIVMTQSPLSLPVTPGEPASISCQASESLVHSNRNTYLHWYLQKPGQSPQLLIYKVSNRFSGVPDRFSGSGSGTDFTLKISRVEAEDVGVYYCSQNTHVPPTFGQGTKVEIERTVAAPSVFIFPPSDEQLKSGTASVVCLLNNFYPREAKVQWKVDNALQSGNSQESVTEQDSKDSTYSLSSTLTLSKADYEKHKVYACEVTHQGLSSPVTKSFNRGEC | 106 % of GpH7-B3/GpL16-k0 (=100)
5 | GpH7-B3 variant S298_08L/GpL16-k0 (antibody, human IgG1, kappa, also called Ho Ab) heavy: not shown light: DIVMTQSPLSLPVTPGEPASISCQASESLVHSNRNTYLHWYLQKPGQSPQLLIYKVSNRFSGVPDRFSGSGSGTDFTLKISRVEAEDVGVYYCSQNTHVPPTFGQGTKVEIERTVAAPSVFIFPPSDEQLKSGTASVVCLLNNFYPREAKVQWKVDNALQSGNSQESVTEQDSKDSTYSLSSTLTLSKADYEKHKVYACEVTHQGLSSPVTKSFNRGEC | 101 % of GpH7-B3/GpL16-k0 (=100)
6 | GpH7-B3 variant P331_14T/GpL16-k0 (antibody, human IgG1, kappa, also called Ho Ab) heavy: not shown light: DIVMTQSPLSLPVTPGEPASISCQASESLVHSNRNTYLHWYLQKPGQSPQLLIYKVSNRFSGVPDRFSGSGSGTDFTLKISRVEAEDVGVYYCSQNTHVPPTFGQGTKVEIERTVAAPSVFIFPPSDEQLKSGTASVVCLLNNFYPREAKVQWKVDNALQSGNSQESVTEQDSKDSTYSLSSTLTLSKADYEKHKVYACEVTHQGLSSPVTKSFNRGEC | 80.8 % of GpH7-B3/GpL16-k0 (=100)
7 | GpH7-B3 variant S239_18N/GpL16-k0 (antibody, human IgG1, kappa, also called Ho Ab) heavy: not shown light: DIVMTQSPLSLPVTPGEPASISCQASESLVHSNRNTYLHWYLQKPGQSPQLLIYKVSNRFSGVPDRFSGSGSGTDFTLKISRVEAEDVGVYYCSQNTHVPPTFGQGTKVEIERTVAAPSVFIFPPSDEQLKSGTASVVCLLNNFYPREAKVQWKVDNALQSGNSQESVTEQDSKDSTYSLSSTLTLSKADYEKHKVYACEVTHQGLSSPVTKSFNRGEC | 103 % of GpH7-B3/GpL16-k0 (=100)
8 | GpH7-B3 variant P331_18N/GpL16-k0 (antibody, human IgG1, kappa, also called Ho Ab) heavy: not shown light: DIVMTQSPLSLPVTPGEPASISCQASESLVHSNRNTYLHWYLQKPGQSPQLLIYKVSNRFSGVPDRFSGSGSGTDFTLKISRVEAEDVGVYYCSQNTHVPPTFGQGTKVEIERTVAAPSVFIFPPSDEQLKSGTASVVCLLNNFYPREAKVQWKVDNALQSGNSQESVTEQDSKDSTYSLSSTLTLSKADYEKHKVYACEVTHQGLSSPVTKSFNRGEC | 76.9 % of GpH7-B3/GpL16-k0 (=100)
9 | GpH7-B3 variant S239_14T/GpL16-k0 (antibody, human IgG1, kappa, also called Ho Ab) heavy: not shown light: DIVMTQSPLSLPVTPGEPASISCQASESLVHSNRNTYLHWYLQKPGQSPQLLIYKVSNRFSGVPDRFSGSGSGTDFTLKISRVEAEDVGVYYCSQNTHVPPTFGQGTKVEIERTVAAPSVFIFPPSDEQLKSGTASVVCLLNNFYPREAKVQWKVDNALQSGNSQESVTEQDSKDSTYSLSSTLTLSKADYEKHKVYACEVTHQGLSSPVTKSFNRGEC | 92.3 % of GpH7-B3/GpL16-k0 (=100)
10 | GpH7-B3 variant S298_06M/GpL16-k0 (antibody, human IgG1, kappa, also called Ho Ab) heavy: not shown light: DIVMTQSPLSLPVTPGEPASISCQASESLVHSNRNTYLHWYLQKPGQSPQLLIYKVSNRFSGVPDRFSGSGSGTDFTLKISRVEAEDVGVYYCSQNTHVPPTFGQGTKVEIERTVAAPSVFIFPPSDEQLKSGTASVVCLLNNFYPREAKVQWKVDNALQSGNSQESVTEQDSKDSTYSLSSTLTLSKADYEKHKVYACEVTHQGLSSPVTKSFNRGEC | 102 % of GpH7-B3/GpL16-k0 (=100)
11 | GpH7-B3 variant Q295_10E/GpL16-k0 (antibody, human IgG1, kappa, also called Ho Ab) heavy: not shown light: DIVMTQSPLSLPVTPGEPASISCQASESLVHSNRNTYLHWYLQKPGQSPQLLIYKVSNRFSGVPDRFSGSGSGTDFTLKISRVEAEDVGVYYCSQNTHVPPTFGQGTKVEIERTVAAPSVFIFPPSDEQLKSGTASVVCLLNNFYPREAKVQWKVDNALQSGNSQESVTEQDSKDSTYSLSSTLTLSKADYEKHKVYACEVTHQGLSSPVTKSFNRGEC | 99.2 % of GpH7-B3/GpL16-k0 (=100)
12 | GpH7-B3 variant P331_16H/GpL16-k0 (antibody, human IgG1, kappa, also called Ho Ab) heavy: not shown light: DIVMTQSPLSLPVTPGEPASISCQASESLVHSNRNTYLHWYLQKPGQSPQLLIYKVSNRFSGVPDRFSGSGSGTDFTLKISRVEAEDVGVYYCSQNTHVPPTFGQGTKVEIERTVAAPSVFIFPPSDEQLKSGTASVVCLLNNFYPREAKVQWKVDNALQSGNSQESVTEQDSKDSTYSLSSTLTLSKADYEKHKVYACEVTHQGLSSPVTKSFNRGEC | 100 % of GpH7-B3/GpL16-k0 (=100)
13 | GpH7-B3 variant S267_03V/GpL16-k0 (antibody, human IgG1, kappa, also called Ho Ab) heavy: not shown light: DIVMTQSPLSLPVTPGEPASISCQASESLVHSNRNTYLHWYLQKPGQSPQLLIYKVSNRFSGVPDRFSGSGSGTDFTLKISRVEAEDVGVYYCSQNTHVPPTFGQGTKVEIERTVAAPSVFIFPPSDEQLKSGTASVVCLLNNFYPREAKVQWKVDNALQSGNSQESVTEQDSKDSTYSLSSTLTLSKADYEKHKVYACEVTHQGLSSPVTKSFNRGEC | 115 % of GpH7-B3/GpL16-k0 (=100)
14 | GpH7-B3 variant S324_04F/GpL16-k0 (antibody, human IgG1, kappa, also called Ho Ab) heavy: not shown light: DIVMTQSPLSLPVTPGEPASISCQASESLVHSNRNTYLHWYLQKPGQSPQLLIYKVSNRFSGVPDRFSGSGSGTDFTLKISRVEAEDVGVYYCSQNTHVPPTFGQGTKVEIERTVAAPSVFIFPPSDEQLKSGTASVVCLLNNFYPREAKVQWKVDNALQSGNSQESVTEQDSKDSTYSLSSTLTLSKADYEKHKVYACEVTHQGLSSPVTKSFNRGEC | 101 % of GpH7-B3/GpL16-k0 (=100)
15 | GpH7-B3 variant S239_06M/GpL16-k0 (antibody, human IgG1, kappa, also called Ho Ab) heavy: not shown light: DIVMTQSPLSLPVTPGEPASISCQASESLVHSNRNTYLHWYLQKPGQSPQLLIYKVSNRFSGVPDRFSGSGSGTDFTLKISRVEAEDVGVYYCSQNTHVPPTFGQGTKVEIERTVAAPSVFIFPPSDEQLKSGTASVVCLLNNFYPREAKVQWKVDNALQSGNSQESVTEQDSKDSTYSLSSTLTLSKADYEKHKVYACEVTHQGLSSPVTKSFNRGEC | 82.9 % of GpH7-B3/GpL16-k0 (=100)
16 | GpH7-B3 variant S267_09D/GpL16-k0 (antibody, human IgG1, kappa, also called Ho Ab) heavy: not shown light: DIVMTQSPLSLPVTPGEPASISCQASESLVHSNRNTYLHWYLQKPGQSPQLLIYKVSNRFSGVPDRFSGSGSGTDFTLKISRVEAEDVGVYYCSQNTHVPPTFGQGTKVEIERTVAAPSVFIFPPSDEQLKSGTASVVCLLNNFYPREAKVQWKVDNALQSGNSQESVTEQDSKDSTYSLSSTLTLSKADYEKHKVYACEVTHQGLSSPVTKSFNRGEC | 167 % of GpH7-B3/GpL16-k0 (=100)
17 | GpH7-B3 variant P331_20W/GpL16-k0 (antibody, human IgG1, kappa, also called Ho Ab) heavy: not shown light: DIVMTQSPLSLPVTPGEPASISCQASESLVHSNRNTYLHWYLQKPGQSPQLLIYKVSNRFSGVPDRFSGSGSGTDFTLKISRVEAEDVGVYYCSQNTHVPPTFGQGTKVEIERTVAAPSVFIFPPSDEQLKSGTASVVCLLNNFYPREAKVQWKVDNALQSGNSQESVTEQDSKDSTYSLSSTLTLSKADYEKHKVYACEVTHQGLSSPVTKSFNRGEC | 102 % of GpH7-B3/GpL16-k0 (=100)
18 | GpH7-B3 variant S267_06M/GpL16-k0 (antibody, human IgG1, kappa, also called Ho Ab) heavy: not shown light: DIVMTQSPLSLPVTPGEPASISCQASESLVHSNRNTYLHWYLQKPGQSPQLLIYKVSNRFSGVPDRFSGSGSGTDFTLKISRVEAEDVGVYYCSQNTHVPPTFGQGTKVEIERTVAAPSVFIFPPSDEQLKSGTASVVCLLNNFYPREAKVQWKVDNALQSGNSQESVTEQDSKDSTYSLSSTLTLSKADYEKHKVYACEVTHQGLSSPVTKSFNRGEC | 102 % of GpH7-B3/GpL16-k0 (=100)
19 | GpH7-B3 variant Q295_06M/GpL16-k0 (antibody, human IgG1, kappa, also called Ho Ab) heavy: not shown light: DIVMTQSPLSLPVTPGEPASISCQASESLVHSNRNTYLHWYLQKPGQSPQLLIYKVSNRFSGVPDRFSGSGSGTDFTLKISRVEAEDVGVYYCSQNTHVPPTFGQGTKVEIERTVAAPSVFIFPPSDEQLKSGTASVVCLLNNFYPREAKVQWKVDNALQSGNSQESVTEQDSKDSTYSLSSTLTLSKADYEKHKVYACEVTHQGLSSPVTKSFNRGEC | 93.9 % of GpH7-B3/GpL16-k0 (=100)
20 | GpH7-B3 variant S239_07I/GpL16-k0 (antibody, human IgG1, kappa, also called Ho Ab) heavy: not shown light: DIVMTQSPLSLPVTPGEPASISCQASESLVHSNRNTYLHWYLQKPGQSPQLLIYKVSNRFSGVPDRFSGSGSGTDFTLKISRVEAEDVGVYYCSQNTHVPPTFGQGTKVEIERTVAAPSVFIFPPSDEQLKSGTASVVCLLNNFYPREAKVQWKVDNALQSGNSQESVTEQDSKDSTYSLSSTLTLSKADYEKHKVYACEVTHQGLSSPVTKSFNRGEC | 85.3 % of GpH7-B3/GpL16-k0 (=100)
21 | GpH7-B3 variant S267_19Q/GpL16-k0 (antibody, human IgG1, kappa, also called Ho Ab) heavy: not shown light: DIVMTQSPLSLPVTPGEPASISCQASESLVHSNRNTYLHWYLQKPGQSPQLLIYKVSNRFSGVPDRFSGSGSGTDFTLKISRVEAEDVGVYYCSQNTHVPPTFGQGTKVEIERTVAAPSVFIFPPSDEQLKSGTASVVCLLNNFYPREAKVQWKVDNALQSGNSQESVTEQDSKDSTYSLSSTLTLSKADYEKHKVYACEVTHQGLSSPVTKSFNRGEC | 110 % of GpH7-B3/GpL16-k0 (=100)
